Reference: patent publication US20210401986A1

Biological target: cetuximab (unconjugated anti-EGFR antibody)
Assay: cell-based or functional assay

Substance “AffiniPure Donkey Anti-Human IgG, Fcγ Fragment Specific (DxHu) antibody conjugated with IRDye 700DX” has a percent cell death of BxPC3 cells (CellTox Green) after sequential labeling and 690 nm light at 16 J/cm^2 of 90%.
